We go through four proteins from PMC11077872, “Sustainable production of multimeric and functional recombinant human adiponectin using genome-edited chickens” (Journal of Biological Engineering, 2024).

Several values for one entry are separate records, joined by “and”; a condition that tells them apart may be missing. Equal values may be shown once.

Series [1] deals with the molecule itself. The series can be described thus: non-reducing SDS-PAGE with western blot; egg white of hens of generations G1-G4 diluted 500 times, mixed with native sample buffer (non-reducing), SDS-PAGE, anti-ADPN blot; with beta-mercaptoethanol and 95 °C mostly monomer at 28 kDa and a weak trimer signal. (Immunoblotting shows a protein as a band on a membrane.)
Series [2] concerns the molecule itself. The series can be described thus: non-reducing SDS-PAGE with western blot; 100 ng of purified or commercial hADPN, mixed with native sample buffer (non-reducing), SDS-PAGE, anti-ADPN blot; with beta-mercaptoethanol and 95 °C mostly monomer, some trimer.

B1: recombinant human adiponectin (hADPN) from egg white of OVA ADPN knock-in genome-edited chickens (natural protein, UniProt Q15848 19-244, looked up)
chain: ETTTQGPGVLLPLPKGACTGWMAGIPGHPGHNGAPGRDGRDGTPGEKGEKGDPGLIGPKGDIGETGVPGAEGPRGFPGIQGRKGEPGEGAYVYRSAFSVGLETYVTIPNMPIRFTKIFYNQQNHYDGSTGKFHCNIPGLYYFAYHITVYMKDVKVSLFKKDKAMLFTYDQYQENNVDQASGSVLLHLEVGDQVWLQVYGEGERNGLYADNDNDSTFTGFLLYHDTN
notes: human adiponectin (ADPN), expressed from the chicken ovalbumin locus by knock-in; A mixture of hexamers and HMW multimers; also called EW-derived hADPN; EW-derived recombinant hADPN; source: egg white of OVA ADPN knock-in hens (G1-G4), diluted egg white; also purified from egg white (ammonium sulfate, HiTrap Q, Superdex 200 SEC)
One may read the stoichiometry N as the number of molecules, sites or subunits per partner or assembly. Regarding B1, the “stoichiometry N” value in series [1] was 6.

B2: High-Five (Hi-5) cell-derived recombinant hADPN (natural protein, human, UniProt Q15848 19-244, looked up)
chain: B1 chain
notes: human adiponectin (ADPN); Mostly trimers, with hexamers and a weak monomer signal; also called Hi-5 cell hADPN; Hi-5 cell-derived commercial hADPN; source: bought: PeproTech (450-24), Hi-5 cells
Turning to B2, the “stoichiometry N” value in series [2] was 3 and 6.

B3: serum-derived commercial hADPN (natural protein, human, UniProt Q15848 19-244, looked up)
chain: B1 chain
notes: human adiponectin (ADPN), native protein from human serum; also called native serum-derived hADPN; human serum hADPN (positive control); source: bought: ProSpec (CYT-024), derived from human serum
As for B3, the “stoichiometry N” value in series [2] was 6.

B4: commercial recombinant hADPN derived from human embryonic kidney (HEK) 293 cells with a C-terminal FLAG tag (natural protein, UniProt Q15848 19-244, looked up)
chain: B1 chain
notes: human adiponectin (ADPN); Mixture of trimers, hexamers and HMW forms; also called HEK293 cell hADPN; HEK293 cell-derived commercial hADPN; source: bought: Biovendor R&D (RD172023100), HEK293 cells; not shown: FLAG, C-terminal, kept
On to B4, for which the “stoichiometry N” value in series [2] was 6 and 3.
